Experimental data published in PMC10244698, “Polypyrimidine tract binding protein 1 (PTBP1) contains a novel regulatory sequence, the rBH3, that binds the prosurvival protein MCL1” (The Journal of Biological Chemistry, 2023).
Blank lines part the entries; values can stand above or below the binder they belong to. Ends that are not written are not given here. * marks the point of attachment. FITC = O=C1OC2(c3ccc(O)cc3Oc3cc(O)ccc32)c2ccc(NC(=S)*)cc21; Ahx = NCCCCCC(=O)O

B1: RNA recognition motif 1 (RRM1) of polypyrimidine tract binding protein 1 (PTBP1), residues 55-147 (domain or fragment, human, UniProt P26599 55-147, looked up)
chain: GVPSRVIHIRKLPIDVTEGEVISLGLPFGKVTNLLMLKGKNQAFIEMNTEEAANTMVNYYTSVTPVLRGQPIYIQFSNHKELKTDSSPNQARA
notes: human PTBP1 RRM1, UniProt P26599, residues 55-147, cloned into pET28a; 15N-labelled for the NMR experiment; also called PTBP1-RRM1; recombinant wildtype RRM1 protein; source: E. coli BL21 (DE3), purified (nickel chromatography, gel filtration)
B3: myeloid cell leukemia-1 (MCL1), residues 163-326 (domain or fragment, human, UniProt Q07820 163-326, looked up)
chain: TPPPAEEEEDELYRQSLEIISRYLREQATGAKDTKPMGRSGATSRKALETLRRVGDGVQRNHETAFQGMLRKLDIKNEDDVKSLSRVMIHVFSDGVTNWGRIVTLISFGAFVAKHLKTINQESCIEPLAESITDVLVRTKRDWLVKQRGWDGFVEFFHVEDLEG
notes: human MCL1, UniProt Q07820, residues 163-326, cloned into pET28a; also called recombinant MCL1; source: E. coli BL21 (DE3), purified (nickel chromatography, gel filtration)

What was measured:
[1] = molecular target: B3; assay: fluorescence polarisation; competitive FPA: 100 nM MCL1, 10 nM FITC-BAK BH3 peptide, unlabeled RRM1 titrated; 1x PBS pH 7.4, 0.1% DMSO; conditions: both partners purified
PTBP1 RRM1 = PTBP1 RRM1 (human, UniProt P26599 55-147); assay: fluorescence polarization; tRNA background; 0.5 nM RNA; FP: 1x PBS pH 7.4, 1% DMSO, tRNA background, temperature not stated; EMSA: 10 mM Hepes pH 7.3, 20 mM KCl, 1 mM MgCl2, 1 mM DTT, tRNA (10 ug/ml in Methods, 10 ug/uL in Fig S2 legend), room temperature, 1% TBE agarose; conditions: protein: recombinant; tags: N-terminal His6 (pET28a); label: 3' FTSC (fluorescein-5-thiosemicarbazide); single-stranded, designed as unstructured
[2] = molecular target: B1; assay: fluorescence polarisation; competitive FPA: 50 nM RRM1, 0.5 nM FTSC-labeled RNA from the 3'UTR of MCL1 mRNA, MCL1 titrated; 1x PBS pH 7.4, 1% DMSO, background of tRNA; conditions: both partners purified
[3] = molecular target: B3; assay: fluorescence polarisation; direct FPA: 10 nM FITC-RRM1_(rBH3) peptide, recombinant MCL1 titrated; 1x PBS pH 7.4, 1% DMSO; conditions: both partners purified

Binder: B1
- IC50 [1]: 88 ± 3 nM

B2: MCL1 3'UTR 25-mer RNA (ssRNA)
RNA: ACGCUUCUCUCAGGGAAAAACAUGC
- Kd (PTBP1 RRM1): 16.1 ± 7.6 nM

Binder: B3
- IC50 [2]: 74.6 ± 37.3 nM

- binding result [1]: binds
B4: FITC-labeled BAK peptide derived from its BH3 sequence (peptide)
peptide: {FITC-Ahx}-GQVGRQLAIIGDDINRRYD
notes: also called F-BAKBH3; FITC-BAK; source: synthetic peptide

- Kd [3]: < 10 nM
B5: FITC-labeled peptide containing the RRM1 rBH3 sequence (peptide)
peptide: {FITC-Ahx}-NTEEAANTMVNYYTSVTPVLRGQ
notes: stretch of PTBP1 RRM1 with the rBH3 motif (E104-Y114) on the alpha2 helix; also called F-RRM1_(rBH3); FITC-RRM1_(rBH3); source: synthetic peptide (GenScript)
